Where a chain is given by its changes, count along the chain named. Names and notes keep the numbering of the source.
What was measured:
Assay in all cases: cell-based or functional assay
[1] = target: HIV-1 Env of strain ZM247v1(Rev-) (HIV-1)
[2] = target: HIV-1 Env of strain TRO.11 (HIV-1)
[3] = target: HIV-1 Env of strain X1193_c1 (HIV-1)
[4] = target: HIV-1 Env of strain 231966.c02 (HIV-1)
[5] = target: HIV-1 Env of strain T257-31 (HIV-1)
[6] = target: HIV-1 Env of strain 89-F1_2_25 (HIV-1)
[7] = target: HIV-1 Env of strain 928-28 (HIV-1)
[8] = target: HIV-1 Env of strain Ce1176_A3 (HIV-1)
[9] = target: HIV-1 Env of strain CNE20 (HIV-1)
[10] = target: HIV-1 Env of strain 6811.v7.c18 (HIV-1)
[11] = target: HIV-1 Env of strain 62357_14_D3_4589 (HIV-1)
[12] = target: HIV-1 Env of strain PVO.4 (HIV-1)
[13] = target: HIV-1 Env of strain 3016.v5.c45 (HIV-1)
[14] = target: HIV-1 Env of strain ZM135M.PL10a (HIV-1)
[15] = target: HIV-1 Env of strain HIV-16845-2.22 (HIV-1)
[16] = target: HIV-1 Env of strain 620345.c01 (HIV-1)
[17] = target: HIV-1 Env of strain Ce2060_G9 (HIV-1)
[18] = target: HIV-1 Env of strain CNE53 (HIV-1)
[19] = target: HIV-1 Env of strain ZM249M.PL1 (HIV-1)
[20] = target: HIV-1 Env of strain CAP45.2.00.G3 (HIV-1)
[21] = target: HIV-1 Env of strain CNE58 (HIV-1)
[22] = target: HIV-1 Env of strain 3301.v1.c24 (HIV-1)
[23] = target: HIV-1 Env of strain P1981_C5_3 (HIV-1)
[24] = target: HIV-1 Env of strain R1166.c01 (HIV-1)
[25] = target: HIV-1 Env of strain RHPA4259.7 (HIV-1)
[26] = target: HIV-1 strain 3718.v3.c11 envelope (gp120) (HIV-1)
[27] = target: HIV-1 strain Ce0393_C3 envelope (gp120) (HIV-1)
[28] = target: HIV-1 strain X2131_C1_B5 envelope (gp120) (HIV-1)
[29] = target: HIV-1 Env of strain 6540.v4.cl (HIV-1)
[30] = target: HIV-1 strain ZM109F.PB4 envelope (gp120) (HIV-1)
[31] = target: HIV-1 strain SC422661.8 envelope (gp120) (HIV-1)
[32] = target: HIV-1 strain R2184.04 envelope (gp120) (HIV-1)
[33] = target: HIV-1 strain CNE20 envelope (gp120) (HIV-1)
[34] = target: HIV-1 strain ZM247v1(Rev-) envelope (gp120) (HIV-1)
[35] = target: HIV-1 strain HIV-16845-2.22 envelope (gp120) (HIV-1)
[36] = target: HIV-1 strain P1981_C5_3 envelope (gp120) (HIV-1)
[37] = target: HIV-1 strain Q259.d2.17 envelope (gp120) (HIV-1)
[38] = target: HIV-1 strain X1254_c3 envelope (gp120) (HIV-1)
[39] = target: HIV-1 strain T250-4 envelope (gp120) (HIV-1)
[40] = target: HIV-1 strain ZM53M.PB12 envelope (gp120) (HIV-1)
[41] = target: HIV-1 strain CNE53 envelope (gp120) (HIV-1)
[42] = target: HIV-1 strain WEAU_d15_410_787 envelope (gp120) (HIV-1)
[43] = target: HIV-1 strain 1054_07_TC4_1499 envelope (gp120) (HIV-1)
[44] = target: HIV-1 strain 3301.v1.c24 envelope (gp120) (HIV-1)
[45] = target: HIV-1 Env of strain 6545.v4.cl (HIV-1)
[46] = target: HIV-1 strain P0402_c2_11 envelope (gp120) (HIV-1)
[47] = target: HIV-1 strain CNE58 envelope (gp120) (HIV-1)
[48] = target: HIV-1 strain THRO4156.18 envelope (gp120) (HIV-1)
[49] = target: HIV-1 strain C1080.c03 envelope (gp120) (HIV-1)
[50] = target: HIV-1 strain RHPA4259.7 envelope (gp120) (HIV-1)

B1: NIH45-46^G54W(HC), S28Y(LC) (antibody, V domains shown)
VH: QVRLSQSGGQMKKPGESMRLSCRASGYEFLNCPINWIRLAPGRRPEWMGWLKPRWGAVNYARKFQGRVTMTRDVYSDTAFLELRSLTSDDTAVYFCTRGKYCTARDYYNWDFEHWGRGAPVTVSS
VL: EIVLTQSPATLSLSPGETAIISCRTSQYGSLAWYQQRPGQAPRLVIYSGSTRAAGIPDRFSGSRWGADYNLSISNLESGDFGVYYCQQYEFFGQGTKVQVDI
- IC50, pseudovirus neutralization [1]: 0.001 µg/mL
- IC50, pseudovirus neutralization [2]: 0.02 µg/mL
- IC50, pseudovirus neutralization [3]: 0.008 µg/mL
- IC50, pseudovirus neutralization [4]: 0.012 µg/mL
- IC50, pseudovirus neutralization [5]: 0.126 µg/mL
- IC50, pseudovirus neutralization [6]: > 50 µg/mL
- IC50, pseudovirus neutralization [7]: 0.045 µg/mL
- IC50, pseudovirus neutralization [8]: 0.172 µg/mL
- IC50, pseudovirus neutralization [9]: 0.001 µg/mL
- IC50, pseudovirus neutralization [10]: 0.026 µg/mL
- IC50, pseudovirus neutralization [11]: 0.015 µg/mL
- IC50, pseudovirus neutralization [12]: 0.014 µg/mL
- IC50, pseudovirus neutralization [13]: 0.006 µg/mL
- IC50, pseudovirus neutralization [14]: 0.049 µg/mL
- IC50, pseudovirus neutralization [15]: 0.38 µg/mL
- IC50, pseudovirus neutralization [16]: > 50 µg/mL
- IC50, pseudovirus neutralization [17]: 0.014 µg/mL
- IC50, pseudovirus neutralization [18]: 0.006 µg/mL
- IC50, pseudovirus neutralization [19]: 0.001 µg/mL
- IC50, pseudovirus neutralization [20]: 0.02 µg/mL
- IC50, pseudovirus neutralization [21]: 0.016 µg/mL
- IC50, pseudovirus neutralization [22]: 0.001 µg/mL
- IC50, pseudovirus neutralization [23]: 0.012 µg/mL
- IC50, pseudovirus neutralization [24]: 0.278 µg/mL
- IC50, pseudovirus neutralization [25]: 0.001 µg/mL

B2: NIH45-46^G54F IgG (antibody, name in Kabat numbering, V domains shown)
VH: B1 VH with W55F
VL: B1 VL with Y28S
- neutralization IC50 [1]: 0.28 µg/mL
- neutralization IC80 [26]: 4.62 µg/mL
- neutralization IC50 [2]: 0.11 µg/mL
- neutralization IC80 [27]: 0.173 µg/mL
- neutralization IC50 [3]: < 0.001 µg/mL
- neutralization IC50 [4]: 0.06 µg/mL
- neutralization IC50 [5]: 0.17 µg/mL
- neutralization IC80 [28]: 0.41 µg/mL
- neutralization IC50 [29]: > 50 µg/mL
- neutralization IC50 [6]: > 50 µg/mL
- neutralization IC50 [7]: 0.11 µg/mL
- neutralization IC80 [30]: 0.17 µg/mL
- neutralization IC50 [8]: 0.24 µg/mL
- neutralization IC80 [31]: 0.1 µg/mL
- neutralization IC50 [9]: 0.53 µg/mL
- neutralization IC80 [32]: 0.054 µg/mL
- neutralization IC80 [33]: 3.91 µg/mL
- neutralization IC50 [10]: 0.017 µg/mL
- neutralization IC80 [34]: 2.45 µg/mL
- neutralization IC80 [35]: 2.75 µg/mL
- neutralization IC80 [36]: 0.11 µg/mL
- neutralization IC50 [11]: 0.04 µg/mL
- neutralization IC80 [37]: 0.036 µg/mL
- neutralization IC80 [38]: 0.043 µg/mL
- neutralization IC50 [12]: 0.07 µg/mL
- neutralization IC80 [39]: > 50 µg/mL
- neutralization IC80 [40]: 0.23 µg/mL
- neutralization IC80 [41]: 0.024 µg/mL
- neutralization IC50 [13]: 5.82 µg/mL
- neutralization IC80 [42]: 0.004 µg/mL
- neutralization IC50 [14]: 0.13 µg/mL
- neutralization IC50 [15]: 0.59 µg/mL
- neutralization IC80 [43]: 0.283 µg/mL
- neutralization IC80 [44]: 0.011 µg/mL
- neutralization IC50 [16]: > 50 µg/mL
- neutralization IC50 [45]: > 50 µg/mL
- neutralization IC50 [17]: 0.022 µg/mL
- neutralization IC50 [18]: 0.005 µg/mL
- neutralization IC80 [46]: 0.047 µg/mL
- neutralization IC80 [47]: 0.11 µg/mL
- neutralization IC50 [19]: 0.004 µg/mL
- neutralization IC80 [48]: 3.01 µg/mL
- neutralization IC50 [21]: 0.04 µg/mL
- neutralization IC50 [22]: 0.001 µg/mL
- neutralization IC50 [23]: 0.03 µg/mL
- neutralization IC80 [49]: 2.26 µg/mL
- neutralization IC50 [24]: 0.4 µg/mL
- neutralization IC50 [25]: 0.005 µg/mL
- neutralization IC80 [50]: 0.02 µg/mL

B3: NIH45-46^G54W (antibody, V domains shown)
VH: B1 VH
VL: B1 VL with Y28S
- IC50, pseudovirus neutralization [1]: 0.32 µg/mL
- IC50, pseudovirus neutralization [2]: 0.04 µg/mL
- IC50, pseudovirus neutralization [3]: 0.001 µg/mL
- IC50, pseudovirus neutralization [4]: 0.02 µg/mL
- IC50, pseudovirus neutralization [5]: 0.13 µg/mL
- IC50, pseudovirus neutralization [6]: > 50 µg/mL
- IC50, pseudovirus neutralization [7]: 0.06 µg/mL
- IC50, pseudovirus neutralization [8]: 0.16 µg/mL
- IC50, pseudovirus neutralization [9]: 0.04 µg/mL
- IC50, pseudovirus neutralization [10]: 0.001 µg/mL
- IC50, pseudovirus neutralization [11]: 0.02 µg/mL
- IC50, pseudovirus neutralization [12]: 0.05 µg/mL
- IC50, pseudovirus neutralization [13]: 1.47 µg/mL
- IC50, pseudovirus neutralization [14]: 0.04 µg/mL
- IC50, pseudovirus neutralization [15]: 0.45 µg/mL
- IC50, pseudovirus neutralization [16]: > 50 µg/mL
- IC50, pseudovirus neutralization [17]: 0.005 µg/mL
- IC50, pseudovirus neutralization [18]: 0.001 µg/mL
- IC50, pseudovirus neutralization [19]: 0.002 µg/mL
- IC50, pseudovirus neutralization [20]: 32.2 µg/mL
- IC50, pseudovirus neutralization [21]: 0.02 µg/mL
- IC50, pseudovirus neutralization [22]: 0.001 µg/mL
- IC50, pseudovirus neutralization [23]: 0.02 µg/mL
- IC50, pseudovirus neutralization [24]: 0.13 µg/mL
- IC50, pseudovirus neutralization [25]: 0.001 µg/mL

Source: patent US20130209454A1
